“And” between values parts separate entries of the source, which are not always exact repeats. Identical values can stand only once.
B1: Phosphofructokinase (PFKM), endogenous (enzyme, human (endogenous in SKOV3 and OVCAR3), UniProt P08237-1 1-780, looked up)
chain: MTHEEHHAAKTLGIGKAIAVLTSGGDAQGMNAAVRAVVRVGIFTGARVFFVHEGYQGLVDGGDHIKEATWESVSMMLQLGGTVIGSARCKDFREREGRLRAAYNLVKRGITNLCVIGGDGSLTGADTFRSEWSDLLSDLQKAGKITDEEATKSSYLNIVGLVGSIDNDFCGTDMTIGTDSALHRIMEIVDAITTTAQSHQRTFVLEVMGRHCGYLALVTSLSCGADWVFIPECPPDDDWEEHLCRRLSETRTRGSRLNIIIVAEGAIDKNGKPITSEDIKNLVVKRLGYDTRVTVLGHVQRGGTPSAFDRILGSRMGVEAVMALLEGTPDTPACVVSLSGNQAVRLPLMECVQVTKDVTKAMDEKKFDEALKLRGRSFMNNWEVYKLLAHVRPPVSKSGSHTVAVMNVGAPAAGMNAAVRSTVRIGLIQGNRVLVVHDGFEGLAKGQIEEAGWSYVGGWTGQGGSKLGTKRTLPKKSFEQISANITKFNIQGLVIIGGFEAYTGGLELMEGRKQFDELCIPFVVIPATVSNNVPGSDFSVGADTALNTICTTCDRIKQSAAGTKRRVFIIETMGGYCGYLATMAGLAAGADAAYIFEEPFTIRDLQANVEHLVQKMKTTVKRGLVLRNEKCNENYTTDFIFNLYSEEGKGIFDSRKNVLGHMQQGGSPTPFDRNFATKMGAKAMNWMSGKIKESYRNGRIFANTPDSGCVLGMRKRALVFQPVAELKDQTDFEHRIPKEQWWLKLRPILKILAKYEIDLDTSDHAHLEHITRKRSGEAAV
notes: PFKM, muscle isoform of phosphofructokinase 1, human, endogenous in ovarian cancer cells; also called PFK1 (M isoform); source: endogenous, SKOV3 (control, OE-NOS1) and OVCAR3 cell lysate
B2: Flag-tagged WT human PFK1 (M isoform) (enzyme, UniProt P08237-1 1-780, looked up)
chain: B1 chain
notes: human PFK1 (M isoform, PFKM) cDNA (ATCC, NCBI NP_000280.1) in the expression vector PCDNA3.1; the vector section is headed 'for ovarian cancer cells expression'; also called Flag-PFKM; Flag-PFKM-WT; source: SKOV3-PFKM-KO cells, transfected, in lysate

Biological target: the molecule itself
Test: non-reducing SDS-PAGE with western blot; cell extracts separated by non-reducing SDS-PAGE, blot for PFKM tetramer, dimer and monomer; SKOV3 control and OE-NOS1 cells, SKOV3 and OVCAR3 cells with GSNO (1 mM, 30 min) or PBS, SKOV3-PFKM-KO cells (with or without OE-NOS1) reconstituted with Flag-PFKM-WT or C351S

| Protein | stoichiometry N |
| --- | --- |
| B1 | 4 and 2 |
| B2 | 4 and 2 |

From publication PMC8050300, “The role of S-nitrosylation of PFKM in regulation of glycolysis in ovarian cancer cells” (Cell Death & Disease, 2021)
